T1: Soluble human FLAG-FasL (synthesized at HGS) (human, UniProt P48023 130-281, limits assumed)
T1 construct: called trimerized in the kinetic BIAcore run; cross-linked with FLAG antibody in the cell assays; also called FasL-Flag; trimerized FLAG-FasL
T1 sequence (looked up): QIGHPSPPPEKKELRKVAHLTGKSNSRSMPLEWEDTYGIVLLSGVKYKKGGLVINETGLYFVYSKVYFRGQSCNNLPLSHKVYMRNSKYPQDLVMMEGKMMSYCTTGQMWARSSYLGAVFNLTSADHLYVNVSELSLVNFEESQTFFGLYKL

T2: Murine FasL on transfected murine L929 cells (murine, UniProt P41047 1-279)
T2 sequence (looked up): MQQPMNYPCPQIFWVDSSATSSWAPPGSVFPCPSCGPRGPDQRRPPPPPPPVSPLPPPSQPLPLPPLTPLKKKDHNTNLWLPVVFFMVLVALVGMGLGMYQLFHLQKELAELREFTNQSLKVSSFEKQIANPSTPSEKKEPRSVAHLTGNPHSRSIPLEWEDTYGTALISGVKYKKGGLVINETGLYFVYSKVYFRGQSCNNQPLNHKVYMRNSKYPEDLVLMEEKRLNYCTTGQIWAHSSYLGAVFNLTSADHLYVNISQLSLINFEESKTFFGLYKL

T3: TNFR-6 alpha-Fc fusion protein (full length TNFR-6 alpha, amino acids 1-300 of SEQ ID NO:2, fused to the Fc … (human, UniProt O95407 30-300))
T3 construct: Construct M1-H300 fused to Fc (pA2Fc:TR6, baculovirus/Sf9); the secreted protein starts at Val 30 and is a disulfide-linked dimer; also called TNFR6-Fc; TR6-Fc
T3 sequence: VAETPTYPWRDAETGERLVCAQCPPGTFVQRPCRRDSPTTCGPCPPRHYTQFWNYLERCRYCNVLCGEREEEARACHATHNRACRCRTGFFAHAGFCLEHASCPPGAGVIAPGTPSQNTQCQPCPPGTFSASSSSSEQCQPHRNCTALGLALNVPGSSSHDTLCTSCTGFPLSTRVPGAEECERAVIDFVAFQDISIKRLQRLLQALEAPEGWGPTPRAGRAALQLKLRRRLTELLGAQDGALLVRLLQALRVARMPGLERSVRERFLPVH

T4: DR6-Fc (UniProt O75509 42-349, limits assumed)
T4 construct: extracellular domain
T4 sequence (looked up): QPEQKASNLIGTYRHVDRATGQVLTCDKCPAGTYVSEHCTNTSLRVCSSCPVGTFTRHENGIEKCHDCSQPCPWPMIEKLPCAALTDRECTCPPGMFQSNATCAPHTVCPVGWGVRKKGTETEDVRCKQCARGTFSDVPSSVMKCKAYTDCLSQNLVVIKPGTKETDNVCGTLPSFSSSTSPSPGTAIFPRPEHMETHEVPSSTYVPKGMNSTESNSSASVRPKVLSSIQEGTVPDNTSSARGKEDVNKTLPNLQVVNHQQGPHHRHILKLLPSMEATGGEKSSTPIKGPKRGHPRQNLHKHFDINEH

T5: Recombinant, untagged TNF-gamma-beta protein (aa 72-251) from E. coli (human, UniProt O95150 72-251)
T5 construct: also called TL1β; recombinant TL1β protein
T5 sequence (looked up): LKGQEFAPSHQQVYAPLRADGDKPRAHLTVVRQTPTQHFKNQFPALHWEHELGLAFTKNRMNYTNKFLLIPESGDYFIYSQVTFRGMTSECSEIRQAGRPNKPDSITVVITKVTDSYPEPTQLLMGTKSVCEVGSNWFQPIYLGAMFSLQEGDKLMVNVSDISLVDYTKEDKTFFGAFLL

B1: Full-length human TR6 (without Fc) (receptor)
chain: T3 sequence
notes: Full-length cDNA expressed in Sf9 cells with the natural leader; also called TR6 non-Fc; TR6-non-Fc
B2: Human LIGHT protein, natural secreted form (aa83-240) (ligand, UniProt O43557 83-240, looked up)
chain: LIQERRSHEVNPAAHLTGANSSLTGSGGPLLWETQLGLAFLRGLSYHDGALVVTKAGYYYIYSKVQLGGVGCPLGLASTITHGLYKRTPRYPEELELLVSQQSPCGRATSSSRVWWDSSFLGGVVHLEAGEKVVVRVLDERLVRLRDGTRSYFGAFMV
notes: range 83-240; also called soluble LIGHT
B3: Human TR2-Fc (extracellular domain of TR2, aa1-192, fused to the Fc domain of human IgG1) (Fc fusion, not shown: a dimerising Fc or GST)
chain: LPSCKEDEYPVGSECCPKCSPGYRVKEACGELTGTVCEPCPPGTYIAHLNGLSKCLQCQMCDPAMGLRASRNCSRTENAVCGCSPGHFCIVQDGDHCAACRAYATSSPGQRVQKGGTESQDTLCQNCPPGTFSPNGTLEECQHQTKCSWLVTKA
notes: From CHO cells
B4: Human LIGHT, full length, on cells (stably transfected 293F cells; endogenous on activated human T cells) (ligand, UniProt O43557 1-240, looked up)
chain: MEESVVRPSVFVVDGQTDIPFTRLGRSHRRQSCSVARVGLGLLLLLMGAGLAVQGWFLLQLHWRLGEMVTRLPDGPAGSWEQLIQERRSHEVNPAAHLTGANSSLTGSGGPLLWETQLGLAFLRGLSYHDGALVVTKAGYYYIYSKVQLGGVGCPLGLASTITHGLYKRTPRYPEELELLVSQQSPCGRATSSSRVWWDSSFLGGVVHLEAGEKVVVRVLDERLVRLRDGTRSYFGAFMV
notes: whole, on cells; also called LIGHT-transfectants; cell membrane LIGHT
B5: TNF-gamma-beta, full length, on transfected cells (ligand, human, UniProt O95150 1-251, looked up)
chain: MAEDLGLSFGETASVEMLPEHGSCRPKARSSSARWALTCCLVLLPFLAGLTTYLLVSQLRAQGEACVQFQALKGQEFAPSHQQVYAPLRADGDKPRAHLTVVRQTPTQHFKNQFPALHWEHELGLAFTKNRMNYTNKFLLIPESGDYFIYSQVTFRGMTSECSEIRQAGRPNKPDSITVVITKVTDSYPEPTQLLMGTKSVCEVGSNWFQPIYLGAMFSLQEGDKLMVNVSDISLVDYTKEDKTFFGAFLL
notes: whole, on cells; also called TL1β
B6: DR3-Fc (extracellular domain of human DR3, aa 1-199, fused to the Fc domain of human IgG1) (Fc fusion, UniProt Q93038 25-199, looked up, not shown: a dimerising Fc or GST)
chain: QGGTRSPRCDCAGDFHKKIGLFCCRGCPAGHYLKAPCTEPCGNSTCLVCPQDTFLAWENHHNSECARCQACDEQASQVALENCSAVADTRCGCKPGWFVECQVSQCVSSSPFYCQPCLDCGALHRHTRLLCSRRDTDCGTCLPGFYEHGDGCVSCPTSTLGSCPERCAAVCGWRQ
notes: range 1-199
B7: BCMA-Fc (Fc fusion, human, UniProt Q02223 1-54, looked up, not shown: a dimerising Fc or GST)
chain: MLQMAGQCSQNEYFDSLLHACIPCQLRCSSNTPPLTCQRYCNASVTNSVKGTNA
notes: Control surface in the BIAcore analysis

What was measured:
[1] = target: T1, Soluble human FLAG-FasL (synthesized at …); experiment: BIAcore
[2] = target: B2; experiment: BIAcore
[3] = target: T2, Murine FasL on transfected murine L929 …; experiment: cell-based or functional assay
[4] = target: B5; experiment: flow cytometry competition, competitor DR3-Fc
Method: (§1) One million cells, in 0.1 ml of FACS buffer (PBS, 0.1% BSA, 0.1% NaN₃), were incubated with 0.1-1 microgram of protein or antibody at RT for 15 min. The cells were washed with 3 ml of FACS buffer, reacted with biotinylated primary antibody, and stained with PE-conjugated secondary antibody at RT for 15 min. Cells were then washed again, resuspended in 0.5 microgram/ml of propidium iodide, and live cells were gated and analyzed on a FACScan using the CellQuest software (BD Biosciences).

[5] = target: T3, TNFR-6 alpha-Fc fusion protein (full …); experiment: BIAcore, receptor immobilized, LIGHT in flow; TR6-Fc
Method: (§2) The amount of bound protein was determined during washing of the flow cell with HBS buffer (10 mM HEPES, pH 7.4, 150 mM NaCl, 3.4 mM EDTA, 0.005% Surfactant P20). The flow cell surface was regenerated by washing off the bound proteins with 20 microliters of 10 mM glycine-HCl pH 2.3. […] The on- and off-rates were determined according a kinetic evaluation program in the BiaEvaluation 3 software using a 1:1 binding model and the global analysis method.

[6] = target: B1; experiment: BIAcore; TR6 without Fc
Method: as §2

[7] = target: T3, TNFR-6 alpha-Fc fusion protein (full …); experiment: BIAcore; TR6-Fc
Method: as §2

[8] = target: B2; experiment: BIAcore, TR2-Fc immobilized, LIGHT in flow; TR2-Fc
Method: as §2

[9] = target: B1; experiment: flow cytometry competition on activated human T cells
[10] = target: T3, TNFR-6 alpha-Fc fusion protein (full …); experiment: conclusion from flow cytometry
DR6-Fc = target: T4, DR6-Fc; experiment: flow cytometry on HEK293F cells expressing full length TNF-gamma-beta
Method: as §1

[11] = target: T3, TNFR-6 alpha-Fc fusion protein (full …); experiment: FACS on transfected cells
[12] = target: T5, Recombinant, untagged TNF-gamma-beta …; experiment: BIAcore, three batches of TNF-gamma-beta; DR3-Fc, average of three batches
Method: (§3) TNFR-Fc were covalently immobilized to the BIAcore sensor chip (CM5 chip) via amine groups using N-ethyl-N′-(dimethylaminopropyl) carbodiimide/N-hydroxysuccinimide chemistry. […] The amount of bound protein was determined during washing of the flow cell with HBS buffer (10 mM HEPES, pH 7.4, 150 mM NaCl, 3.4 mM EDTA, 0.005% Surfactant P20). The flow cell surface was regenerated by displacing bound protein by washing with 20 microliters of 10 mM glycine-HCl, pH 2.3. For kinetic analysis, the on and off rates were determined using the kinetic evaluation program in BIAevaluation 3 software using a 1:1 binding model and the global analysis method.

[13] = target: T5, Recombinant, untagged TNF-gamma-beta …; experiment: BIAcore, DR3-Fc immobilized, TNF-gamma-beta 3-370 nM in flow; DR3-Fc
Method: as §3

[14] = target: T5, Recombinant, untagged TNF-gamma-beta …; experiment: BIAcore, receptor-Fc immobilized
Method: as §3

## B1
[1]
  fold reduction in affinity against TR6-Fc: 4 fold
[2]
  fold higher off rate against TR6-Fc: ~2 fold
[3]
  IC50 of inhibition of killing of A20 target cells by murine FasL-transfected L929 cells: ~1 ng/mL
[4]
  molar ratio of TR6 to DR3-Fc at which no DR3-Fc binding was detected: 2 molar ratio (TR6:DR3-Fc)

## B2
[5]
  Kd: 5.46 nM
[6]
  Kd: 14.3 nM
  koff: 0.00483 s⁻¹
  kon: 338000 M⁻¹ s⁻¹
[7]
  koff: 0.0023 s⁻¹
  kon: 422000 M⁻¹ s⁻¹

## B3
[8]
  Kd: 4.56 nM

## B4
[9]
  binding result: binds
[10]
  binding result: binds

## B5
DR6-Fc
  binding result: no binding
[11]
  binding result: binds

## B6
[12]
  Kd: 6.45 nM
[13]
  koff: 0.00413 s⁻¹
  kon: 639000 M⁻¹ s⁻¹

## B7
[14]
  binding result: no binding (tested: 3-370 nM)
